# Test results published in the RNAGym collection of RNA variant scans (doi:10.1073/pnas.2313332121).
# Fewer inactive variants are shown than the library holds.
# B1: TPR 5TU (parent)
# chain: GGAUCUUCUCGAUCUAACAAAAAAGACAAAUCUGCCACAAAGCUUGAGAGCAUCUUCGGAUGCAGAGGCGGCAGCCUUCGGUGGCGCGAUAGCGCCAACGUUCUCAACUAUGACACGCAAAACGCGUGCUCCGUUGAAUGGAGUUUAUCAUG
# Variants of: B1
# Experiment: polymerase ribozyme fitness, log enrichment relative to wild type (log ratio); higher = more active; in vitro selection for triplet polymerase activity
# How it was run: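 Frozen incubation at −7 °C formed the core of a single, triplicate in vitro selection round applied to PCR-built, transcribed mutant libraries of each subunit of a heterodimeric triplet polymerase ribozyme. Extended constructs were gel-excised, captured with streptavidin beads and amplified by RT-PCR, and input and output libraries were Illumina-sequenced with a filter of ≥10 input reads and ≥1 read per output. Fitness is the logarithm of genotype enrichment relative to wild-type enrichment, with inverse-variance-weighted replicate averaging, and the logarithm is base 2.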
row,Variant,polymerase ribozyme fitness (log ratio)
1,GGAUCUUCUCGAUUUAACAAAAAAGACAAAUCUGCCACAAAGCUUGAGAGCAUCUUAGGAUGCAGAGGCGGCAGCCUUCGGUGGCGCGAUAGCGCCAACGUUCUCAACUAUGACACGCAAAACGCGUGCUCCGUUGAAUGGAGUUUAUCAUG [C14U C57A],-0.738
2,GGAUCUUCUCGAUUUAACAAAAAAGACAAAUCUGCCACAAAGCUUGAGAGCAUCUUCGGAUGCAGAGGCGGCAGCCUUCGGUGGCGCGAUAGCGCCAACGUUCUCAACUAUGACACGCAAAACGCGUGCUCCGUUGAAUGGAGUUUAUCCUG [C14U A150C],≤ -4.2
3,GGAUCUUCUCGAUUUAACAAAAAAGACAAAUCUGCCACAAAGCUUGAGAGCAUCUUCGGAUGCAGAGGCGGCAGCCUUCGGUGGCGUGAUAGCGCCAAUGUUCUCAACUAUGACACGCAAAACAUGUGCUCCGUUGAAUGGAGUUUAUCAUG [C14U C87U C99U G124A C125U],-2.54
4,GGAUCUUCUCGAUUUAACAAAAAAGACAAAUCUGCCACAAAGCUUGAGAGCAUCUUCGGAUGCGGAGGCGGCAGCCUUCGGUGGCGCGAUAGCGCCAACGUUCUCAACUAUGACACGCAAAACGCGUGCUCCGUUGAAUGGAGUUUAUCAUG [C14U A64G],-4.17
5,GGAUCUUCUCGAUUUAACAAAAAAGACAAAUCUGCCACAAAGCUUGAGAGCAUUUUCGGAUGCAGAGGCGGCAGCCUUCGGUGGCGCGAUAGCGCCAACGUUCUCAACUAUGACACGCAAAACGCGUGCUCCGUUGAAUGGAGUUUAUCAUG [C14U C54U],-1.87
6,GGAUCUUCUCGAUUUAACAAAAAAGACAAAUGUGCCACAAAGCUUGAGAGCAUCUUCGGAUGCAGAGGAGGCAGCCUUCGGUGGCGCGAUAGCGCCAACGUUCUCAACUAUGACACGCAAAACGCGUGCUCCGUUGAAUGGAGUUUAUCAUG [C14U C32G C69A],≤ -4.2
7,GGAUCUUCUCGAUUUAACAAAAAAGACAAAUCUGCCACAAAGCUUGAGAGCAUCUUCGGAUGCAGAGGCGGCAGCCUUCGGUGGAGCGAUAGCGCCAACGUUCUCAACUAUGACACGCAAAACGCGUGCUCCGGUGAAUGGGGUUUAUCUUG [C14U C85A U134G A142G A150U],≤ -4.2
8,GGAUCUUCUCGAUUUAACAAAAAAGACAAAUCUGCCACAAAGCUUGAGAGCAUCUUCGGAUGCAGAGGCGGUAGCUUUCGGUGGCGCGAUAGCGCAAACGUUCUCAACUAUUACACGCAAAACGCGUGCUCCGUUGAAUGGAGUUUAUCAUG [C14U C72U C76U C96A G112U],≤ -4.2
9,GGAUCUUCUCGAUUUAACAAAAAAGACAAAUCUGCCACAAAGCUUGAGAGCAUCUUCGGAUGCAGAGGCGGCAGCCUUCGGUGGCGCGAUGGCGCCAACGUUCUCAACUAUGACACGCAAAACGCGUGCUCCGUUGAAUGGAGUUUAUCAUG [C14U A91G],-3.98
10,GGAUCUUCUCGAUUUAACAAAAAAGACAAAUCUGCCACAAAGCUUGAGAGCAUCUUCGGAUGCAGAGGCGGCAGCCUUCGGUGGCGCGAUAGCGCCAACGUUCUCAACUAUGACAGGCAAAACGCGUAGUCCGUGGAAUGGAGUUUAUCAUG [C14U C116G G128A C129G U135G],≤ -4.2
11,GGAUCUUCUCGAUUUAACAAAAAAGACAAAUCUGCCACAAAGCUUGAGAGCAUCUUCGGAUGCAGAGGCGGCAGCCUUCGGUGGCGCGAUAGCGUCAACGGUCUUAACUAUGACACGCAAAACGUGUGCUCCGUUGAAUGGUGUUUAUCAUG [C14U C95U U101G C105U C125U A142U],≤ -4.2
12,GGAUCUUCUCGAUUUAACAAAAAACCCAAAUCUGCCACAAAACUUGAGAGCAUCUUCGGUUGCAGAGGCGGCAGCCUUCGGUGACGCGAUAGCGCCAACGUUCUCAAUUAUGACACGCAAAACGCGUGCUCCGUUGAAUGGAGUUUAUCAUA [C14U G25C A26C G42A A60U G84A C108U G152A],≤ -4.2
13,GGAUCUUCUCGAUUUAACAAAAAAGACAAAUCUUCCACAAAGCUUGAGCGCAUCUUCGCAUGCAGAGGAGGCAGCCUUCGGUGGCGCGAUCGCGCCAACGUUCUCAACUAUGACACGCAAAACGCGUGCUCCGUUGAAAGGAGUUUCUCAUG [C14U G34U A49C G59C C69A A91C U139A A147C],≤ -4.2
14,GGAUCUUCUCGAUUUAACAAAAAAGACAAAUCUGUCACAAAGCUUGAGAGCAUCUUCGGAUGCAGAGGCGGCAGCCUUCGGUGUCGCGAUAGCGCCAACGUUCUCAACUAUGACACGCAAAACGCGUGCUUCGUUGAAUGGAGUUUAUCAUG [C14U C35U G84U C131U],-3.79
15,GGAUCUUCUCGAUUUAACAAAAAAGACAAAUCUGGCACAAAGCUUGAGAGCAUCUUCGGAUGCAGAGGCGGCAGUGUUCGGUGGCGCGAUAGCGUCAACGUUCUCAACUAUGACACGCAAAACGCGUGCUCCGUUGAAUGGAGUUUAUCAUG [C14U C35G C75U C76G C95U],-3.81
16,GGAUCUUCUCGAUUUAACAAAAAAGACAAAUCUGCCACAAAGCUUGAGAGCAUCUUCGGAUGCAGCGGCGGCAGCCUGCGGUGGCGCGAUAGCGGCAACGUUCUCAAUUAUGACACGCAAAACGCGUGCUCCGUUGAAUGGAGUUUAUCAUG [C14U A66C U78G C95G C108U],≤ -4.2
17,GGAUCUUCUCGAUUUAACAAAAAACACAAAUCUGCCAGAAAGCUUGAGAGCAUCUUCGGAUGCAGAAGAGGCAGCCUUCGGUGGCGCGAUAGCGCUAACGUUCUCAACUAUGACACGCAAGACGCGUGCUCCGUUGAAUGGAGUUUCUCAUG [C14U G25C C38G G67A C69A C96U A121G A147C],≤ -4.2
18,GGAUCUUCUCGAUUUAACAAAAAAGACAAAUCUGCCACAAAACUUGAGAGCAUCUUCGGAUGCAGAGGCGGCAGCCUUCGGUGGCGUGAUAGCGCCAACGUUCUCAACUAUGACACGCAAAACGCGUGCUCCGUUAAAUGGAGUUUAUCAUG [C14U G42A C87U G136A],≤ -4.2
19,GGAUCUUCUCGAUUUAACAAAAAAGACAAAUCUGCCACAAAGCUUGAGAGCAUCUUCGGAUGCAGAGGCGGCAGCCUUCGGUGGCGCGAUAGCGCCAACGUUCUCAUCUAUGACACAAAAAACGCGUGCUCCGUUGAAUGGGGUUUAUCAUG [C14U A107U G117A C118A A142G],≤ -4.2
